The source of these data is US12617856B2, “Protease-cleavable substrates and methods of use thereof” (CytomX Therapeutics, Inc., priority 2022, dated 2026).

Starred links: 1 amine or outer side, 2 acyl side, 3 side chain; linkers in the order of their positions; H or OH if unused. No end group written: not given here. *: point of attachment. K(DNP) = O=C([C@H](CCCCNc1ccc([N+](=O)[O-])cc1[N+](=O)[O-])N[*:1])[*:2]; Mca = COc1ccc2c(CC(=O)*)cc(=O)oc2c1

Format in all cases: biochemical
The target of one assay is T1, MMP2 (Homo sapiens, UniProt P08253).
T1 sequence (P08253 110-660): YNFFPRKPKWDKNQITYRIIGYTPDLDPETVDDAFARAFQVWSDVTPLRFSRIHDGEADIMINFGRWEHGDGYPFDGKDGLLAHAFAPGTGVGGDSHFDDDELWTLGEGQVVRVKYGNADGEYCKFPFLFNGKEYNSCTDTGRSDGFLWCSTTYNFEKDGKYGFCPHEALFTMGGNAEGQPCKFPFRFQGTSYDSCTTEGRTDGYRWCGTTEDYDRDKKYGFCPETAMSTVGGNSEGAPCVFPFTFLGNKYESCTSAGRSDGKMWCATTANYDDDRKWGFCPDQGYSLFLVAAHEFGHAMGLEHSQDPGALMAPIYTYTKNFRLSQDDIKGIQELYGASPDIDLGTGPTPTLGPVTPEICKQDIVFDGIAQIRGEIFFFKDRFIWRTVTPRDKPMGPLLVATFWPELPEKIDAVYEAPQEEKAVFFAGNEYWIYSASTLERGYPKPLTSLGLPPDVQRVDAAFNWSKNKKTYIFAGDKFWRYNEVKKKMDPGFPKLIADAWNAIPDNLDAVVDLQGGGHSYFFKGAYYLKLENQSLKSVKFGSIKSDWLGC
Kind of assay: Peptide probe cleavage assay (internally quenched MCA/DNP probes) with MMP2. To be noted: 20 μM internally quenched peptide probe, 20 nM protease, 37° C.

The next assay deals with MMP9 (Homo sapiens, UniProt P14780). Kind of assay: Peptide probe cleavage assay (internally quenched MCA/DNP probes) with MMP9. To be noted: 20 μM internally quenched peptide probe, 20 nM protease, 37° C.
MMP9, sequence (P14780 94-707): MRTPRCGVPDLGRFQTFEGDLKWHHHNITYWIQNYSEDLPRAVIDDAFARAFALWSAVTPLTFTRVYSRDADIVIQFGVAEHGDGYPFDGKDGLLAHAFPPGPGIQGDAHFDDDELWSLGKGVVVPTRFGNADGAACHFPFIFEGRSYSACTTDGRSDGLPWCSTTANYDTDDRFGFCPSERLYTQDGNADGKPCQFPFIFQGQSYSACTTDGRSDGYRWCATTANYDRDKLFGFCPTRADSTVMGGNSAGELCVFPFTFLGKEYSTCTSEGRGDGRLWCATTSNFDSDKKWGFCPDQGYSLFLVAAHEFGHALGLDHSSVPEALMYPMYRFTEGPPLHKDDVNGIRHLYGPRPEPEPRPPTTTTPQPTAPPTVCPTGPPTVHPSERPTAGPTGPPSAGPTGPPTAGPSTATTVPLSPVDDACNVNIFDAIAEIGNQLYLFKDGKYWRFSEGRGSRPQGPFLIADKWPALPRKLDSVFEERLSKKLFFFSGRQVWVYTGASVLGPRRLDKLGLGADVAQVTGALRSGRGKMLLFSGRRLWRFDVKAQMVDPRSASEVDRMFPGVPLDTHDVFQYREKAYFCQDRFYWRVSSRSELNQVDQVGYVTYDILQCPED
Assay [1] has as its target urokinase-type plasminogen activator (uPA) (Homo sapiens, UniProt P00749). Kind of assay: Peptide probe cleavage assay (internally quenched MCA/DNP probes) with uPA. Conditions: 20 μM internally quenched peptide probe, 20 nM protease, 37° C.; — = below limit of quantification.
Assay [2] has as its target T2, membrane type serine protease 1 (MT-SP1) (Homo sapiens, UniProt Q9Y5Y6).
T2 sequence (Q9Y5Y6 1-855): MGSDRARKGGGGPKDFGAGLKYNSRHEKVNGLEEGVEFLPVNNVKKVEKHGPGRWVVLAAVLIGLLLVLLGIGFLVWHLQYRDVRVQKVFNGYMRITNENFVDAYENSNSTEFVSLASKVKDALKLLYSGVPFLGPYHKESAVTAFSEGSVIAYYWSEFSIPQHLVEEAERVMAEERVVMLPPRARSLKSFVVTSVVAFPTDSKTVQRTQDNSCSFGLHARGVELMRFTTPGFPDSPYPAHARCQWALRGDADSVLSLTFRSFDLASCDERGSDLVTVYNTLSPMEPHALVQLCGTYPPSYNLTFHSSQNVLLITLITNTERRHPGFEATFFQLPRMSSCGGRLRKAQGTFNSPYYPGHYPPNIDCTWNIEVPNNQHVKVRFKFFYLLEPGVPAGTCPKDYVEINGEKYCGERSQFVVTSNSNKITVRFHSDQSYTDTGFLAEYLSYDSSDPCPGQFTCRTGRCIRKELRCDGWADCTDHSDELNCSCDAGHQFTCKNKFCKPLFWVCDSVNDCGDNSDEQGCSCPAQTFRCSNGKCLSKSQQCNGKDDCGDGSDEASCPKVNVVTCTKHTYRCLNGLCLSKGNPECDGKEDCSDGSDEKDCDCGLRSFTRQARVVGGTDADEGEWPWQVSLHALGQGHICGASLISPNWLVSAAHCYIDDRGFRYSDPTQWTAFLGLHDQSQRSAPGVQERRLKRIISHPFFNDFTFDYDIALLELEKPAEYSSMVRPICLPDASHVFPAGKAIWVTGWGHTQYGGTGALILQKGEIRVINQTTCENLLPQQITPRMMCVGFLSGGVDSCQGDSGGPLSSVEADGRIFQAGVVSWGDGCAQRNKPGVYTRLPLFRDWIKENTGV
Kind of assay: Peptide probe cleavage assay (internally quenched MCA/DNP probes) with MT-SP1. To be noted: 20 μM internally quenched peptide probe, 20 nM protease, 37° C.

A further assay deals with MMP14 (Homo sapiens, UniProt P50281). Kind of assay: Peptide probe cleavage assay (internally quenched MCA/DNP probes) with MMP14. Conditions: 20 μM internally quenched peptide probe, 20 nM protease, 37° C.; — = below limit of quantification.

Take “(MCA)-Gly-Ser-Trp-Gly-Leu-Ser-Gly-Arg-Ser-Gly-Lys (DNP)-D-Arg (Mca-GSWGLSGRSG-{K(DNP)-dR}; SMILES COc1ccc2c(CC(=O)NCC(=O)N[C@@H](CO)C(=O)N[C@@H](Cc3c[nH]c4ccccc34)C(=O)NCC(=O)N[C@@H](CC(C)C)C(=O)N[C@@H](CO)C(=O)NCC(=O)N[C@@H](CCCNC(=N)N)C(=O)N[C@@H](CO)C(=O)NCC(=O)N[C@@H](CCCCNc3ccc([N+](=O)[O-])cc3[N+](=O)[O-])C(=O)N[C@H](CCCNC(=N)N)C(=O)O)cc(=O)oc2c1) [CM WGLSGRS]”: in the assay with MMP2, the “Probe Cleavage (pM/s) MMP2” value is 66.4 pM/s. In the assay with MMP9, the “Probe Cleavage (pM/s) MMP9” value is given as 581 pM/s.
On to “(MCA)-Ser-Pro-Trp-Gly-Leu-Ser-Gly-Arg-Gly-Ser-Lys (DNP)-D-Arg (Mca-SPWGLSGRGS-{K(DNP)-dR}; SMILES COc1ccc2c(CC(=O)N[C@@H](CO)C(=O)N3CCC[C@H]3C(=O)N[C@@H](Cc3c[nH]c4ccccc34)C(=O)NCC(=O)N[C@@H](CC(C)C)C(=O)N[C@@H](CO)C(=O)NCC(=O)N[C@@H](CCCNC(=N)N)C(=O)NCC(=O)N[C@@H](CO)C(=O)N[C@@H](CCCCNc3ccc([N+](=O)[O-])cc3[N+](=O)[O-])C(=O)N[C@H](CCCNC(=N)N)C(=O)O)cc(=O)oc2c1) [CM PWGLSGR]”, for which the “Probe Cleavage (pM/s) uPA” value in assay [1] is 48.3 pM/s.
In the case of “(MCA)-Ser-Pro-Trp-Gly-Leu-Ser-Gly-Gly-Gly-Ser-Lys (DNP)-D-Arg (Mca-SPWGLSGGGS-{K(DNP)-dR}; SMILES COc1ccc2c(CC(=O)N[C@@H](CO)C(=O)N3CCC[C@H]3C(=O)N[C@@H](Cc3c[nH]c4ccccc34)C(=O)NCC(=O)N[C@@H](CC(C)C)C(=O)N[C@@H](CO)C(=O)NCC(=O)NCC(=O)NCC(=O)N[C@@H](CO)C(=O)N[C@@H](CCCCNc3ccc([N+](=O)[O-])cc3[N+](=O)[O-])C(=O)N[C@H](CCCNC(=N)N)C(=O)O)cc(=O)oc2c1) [CM PWGLSG]”, the “Probe Cleavage (pM/s) MT-SP1” value in assay [2] was 5.10 pM/s. Further, in assay [1], the “Probe Cleavage (pM/s) uPA” value is reported as 12.9 pM/s.
Turning to “CM AWGLSGRS: internally quenched MCA/DNP probe SEQ ID NO: 699 with one residue replaced by Ala, CM AWGLSGRS (SEQ ID NO: 686) (not fully specified (N-terminus, C-terminus); also: MCA/DNP internal quench labels, places not given here)”, the “Probe Cleavage (pM/s) MMP2” value with MMP2 was found to be 816 pM/s. The “Probe Cleavage (pM/s) MMP14” value with MMP14 was found to be 224 pM/s.
In the case of “CM LSGRSPAGL: internally quenched MCA/DNP probe of design SEQ ID NO: 703, X1 Arg, X2 Ala, CM LSGRSPAGL (SEQ ID NO: 694) (also: MCA/DNP internal quench labels, places not given here)”, the “Probe Cleavage (pM/s) MMP14” value in the assay with MMP14 is reported as 190 pM/s.
For the substance “CM PWGASGRS: internally quenched MCA/DNP probe SEQ ID NO: 699 with one residue replaced by Ala, CM PWGASGRS (SEQ ID NO: 689) (not fully specified (N-terminus, C-terminus); also: MCA/DNP internal quench labels, places not given here)”, the “Probe Cleavage (pM/s) MMP2” value with MMP2 is 202 pM/s. For the same substance, the “Probe Cleavage (pM/s) MMP9” value in the assay with MMP9 turned out to be 456 pM/s. Also, the “Probe Cleavage (pM/s) MMP14” value with MMP14 is 29.7 pM/s.
As for “CM PWGLAGRS: internally quenched MCA/DNP probe SEQ ID NO: 699 with one residue replaced by Ala, CM PWGLAGRS (SEQ ID NO: 690) (not fully specified (N-terminus, C-terminus); also: MCA/DNP internal quench labels, places not given here)”, the “Probe Cleavage (pM/s) uPA” value in assay [1] worked out at 126 pM/s.
On to “CM PWGLRS: internally quenched MCA/DNP peptide probe of design SEQ ID NO: 698, CM PWGLRS (SEQ ID NO: 48) (also: MCA/DNP internal quench labels, places not given here)”, for which the “Probe Cleavage (pM/s) MT-SP1” value in assay [2] is 1230 pM/s. In the assay with MMP2, the “Probe Cleavage (pM/s) MMP2” value came to 3800 pM/s. Also, in the assay with MMP9, the “Probe Cleavage (pM/s) MMP9” value came out at 3830 pM/s. Also, in the assay with MMP14, the “Probe Cleavage (pM/s) MMP14” value stood at 4380 pM/s.
With “CM PWGLSGAS: internally quenched MCA/DNP probe SEQ ID NO: 699 with one residue replaced by Ala, CM PWGLSGAS (SEQ ID NO: 692) (not fully specified (N-terminus, C-terminus); also: MCA/DNP internal quench labels, places not given here)”, in assay [2], the “Probe Cleavage (pM/s) MT-SP1” value is 13.0 pM/s. The “Probe Cleavage (pM/s) uPA” value in assay [1] is 1.80 pM/s.
Take “CM PWGLSGRA: internally quenched MCA/DNP probe SEQ ID NO: 699 with one residue replaced by Ala, CM PWGLSGRA (SEQ ID NO: 693) (not fully specified (N-terminus, C-terminus); also: MCA/DNP internal quench labels, places not given here)”: the “Probe Cleavage (pM/s) uPA” value in assay [1] was determined as 380 pM/s.
Turning to “CM RSPWGL: internally quenched MCA/DNP peptide probe of design SEQ ID NO: 698, CM RSPWGL (SEQ ID NO: 90) (also: MCA/DNP internal quench labels, places not given here)”, the “Probe Cleavage (pM/s) MT-SP1” value in assay [2] was 2390 pM/s. For the same substance, in assay [1], the “Probe Cleavage (pM/s) uPA” value is given as 3210 pM/s. Also, in the assay with MMP2, the “Probe Cleavage (pM/s) MMP2” value is 11700 pM/s. Further, the “Probe Cleavage (pM/s) MMP9” value with MMP9 is recorded as 25500 pM/s. For the same substance, the “Probe Cleavage (pM/s) MMP14” value in the assay with MMP14 came out at 9580 pM/s.
